Results as given in EP1746106A2 (Biogen Idec MA Inc., dated 2007).
Blank lines part the entries; values can stand above or below the binder they belong to.

Key:
[1] = target: T1, N-terminus FLAG-tagged human full length TACI expressed on 293EBNA cells (pJST552) (human, UniProt O14836 1-293); test: flow cytometry on 293EBNA cells transfected with FLAG-tagged full length human TACI; detection with rabbit anti-mAPRIL Rb1532 and anti-rabbit IgG-PE
T1 construct: also called FLAG-tagged full length human TACI; flag-tagged full length TACI; not shown: N-terminal FLAG tag
T1 sequence: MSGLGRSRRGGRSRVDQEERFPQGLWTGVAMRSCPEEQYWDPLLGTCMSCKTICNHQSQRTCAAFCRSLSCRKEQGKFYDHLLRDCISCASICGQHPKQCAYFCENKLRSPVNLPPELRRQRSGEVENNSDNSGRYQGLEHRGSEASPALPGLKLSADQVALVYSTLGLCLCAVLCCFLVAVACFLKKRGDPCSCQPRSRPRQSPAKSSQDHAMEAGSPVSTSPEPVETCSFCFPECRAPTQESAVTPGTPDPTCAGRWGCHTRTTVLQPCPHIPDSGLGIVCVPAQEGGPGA

[2] = target: T2, FLAG-tagged soluble muBAFF (murine, UniProt Q9WU72 127-309, limits assumed); test: co-immunoprecipitation with protein A-Sepharose, anti-FLAG M2 Western blot
T2 construct: Anti-FLAG M2-purified, 500 ng used; not shown: FLAG tag
T2 sequence (Q9WU72 127-309 limits assumed): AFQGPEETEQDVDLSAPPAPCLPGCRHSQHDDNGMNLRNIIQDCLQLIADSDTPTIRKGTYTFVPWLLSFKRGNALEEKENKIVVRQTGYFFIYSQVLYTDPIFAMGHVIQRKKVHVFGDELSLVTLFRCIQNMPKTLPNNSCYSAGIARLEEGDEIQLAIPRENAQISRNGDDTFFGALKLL

binding result [1]: binds
B1: myc-tagged murine APRIL (ligand)
chain: EQKLISEEDLNGGGGSKELAVLTQKHKKKHSVLHLVPVNITSKDSDVTEVMWQPVLRRGRGLEAQGDIVRVWDTGIYLLYSQVLFHDVTFTMGQVVSREGQGRRETLFRCIRSMPSDPDRAYNSCYSAGVFHLHQGDIITVKIPRANAKLSLSPHGTFLGFVKL
modifications: Glycosylated (expressed in Pichia pastoris); the letters do not carry the glycans.
notes: Purified from P. pastoris supernate; also called myc-muAPRIL; Myc-Murine APRIL A88

binding result [2]: no binding (tested: 500 ng)
B2: human TACI(1-160)-Ig fusion protein (Fc fusion)
chain: MSGLGRSRRGGRSRVDQEERFPQGLWTGVAMRSCPEEQYWDPLLGTCMSCKTICNHQSQRTCAAFCRSLSCRKEQGKFYDHLLRDCISCASICGQHPKQCAYFCENKLRSPVNLPPELRRQRSGEVENNSDNSGRYQGLEHRGSEASPALPGLKLSADQV
notes: Used as conditioned medium (Optimem) from transfected 293 cells; also called hTACI(1-160)-Ig; PS882 product; not shown: human IgG-Fc
